Results taken from publication PMC5154190, “HBV maintains electrostatic homeostasis by modulating negative charges from phosphoserine and encapsidated nucleic acids” (Scientific Reports, 2016).
Where a chain is given by its changes, count along the chain named. Names may count otherwise.

Biological target: the molecule itself
Test: native gel or EMSA

B1: HBc mutant S3A, expressed in HuH-7 cells (natural protein)
chain: MDIDPYKEFGATVELLSFLPSDFFPSVRDLLDTASALYREALESPEHCSPHHTALRQAILCWGELMTLATWVGVNLEDPASRDLVVSYVNTNMGLKFRQLLWFHISCLTFGRETVIEYLVSFGVWIRTPPAYRPPNAPILSTLPETTVVRRRGRAPRRRTPAPRRRRSQAPRRRRSQSRESQC
Does B1 bind?
Result: binds

B2: HBc mutant S7A, expressed in HuH-7 cells (natural protein)
chain: B1 chain with S168A, S176A, S178A, S181A
Does B2 bind?
Result: binds

B3: HBc mutant S3D, E. coli-expressed (natural protein)
chain: B1 chain with A155D, A162D, A170D
Does B3 bind?
Result: binds

B4: HBc mutant S3D, expressed in HuH-7 cells (natural protein)
chain: B1 chain with A155D, A162D, A170D
Does B4 bind?
Result: binds

B5: HBc mutant S7D, expressed in HuH-7 cells (natural protein)
chain: B1 chain with A155D, A162D, S168D, A170D, S176D, S178D, S181D
Does B5 bind?
Result: binds

B6: HBc mutant S7D, E. coli-expressed (natural protein)
chain: B1 chain with A155D, A162D, S168D, A170D, S176D, S178D, S181D
Does B6 bind?
Result: binds
